Experimental data published in US20150164996A1 (Sanofi, published 2015).
Like-named read-outs stand apart in the source and are kept apart here. Square brackets hold non-standard residues; d marks the D form. Ends that are not written are not given here. Aib = CC(C)(N)C(=O)O

T1: human GIP receptor (human, UniProt P48546 22-466)
T1 sequence (looked up): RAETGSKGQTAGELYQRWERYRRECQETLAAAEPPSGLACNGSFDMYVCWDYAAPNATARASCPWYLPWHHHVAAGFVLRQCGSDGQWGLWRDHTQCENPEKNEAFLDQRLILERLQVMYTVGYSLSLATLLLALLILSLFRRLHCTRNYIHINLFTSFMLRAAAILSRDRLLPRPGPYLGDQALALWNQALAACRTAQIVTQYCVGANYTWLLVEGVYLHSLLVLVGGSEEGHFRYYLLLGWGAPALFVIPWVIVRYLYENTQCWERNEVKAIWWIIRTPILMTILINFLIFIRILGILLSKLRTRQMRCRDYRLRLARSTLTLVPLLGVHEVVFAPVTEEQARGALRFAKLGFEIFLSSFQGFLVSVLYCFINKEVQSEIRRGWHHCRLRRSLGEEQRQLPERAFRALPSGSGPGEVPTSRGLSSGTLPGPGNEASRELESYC

B1: SEQ ID NO: 10 (peptide)
peptide: Y[Aib]EGTFTSDLSKLLEEEAVRLFIEWLKAGGPSSGAPPPS-NH2
modifications: N-terminus assumed
SMILES: CC[C@H](C)[C@H](NC(=O)[C@H](Cc1ccccc1)NC(=O)[C@H](CC(C)C)NC(=O)[C@H](CCCNC(=N)N)NC(=O)[C@@H](NC(=O)[C@H](C)NC(=O)[C@H](CCC(=O)O)NC(=O)[C@H](CCC(=O)O)NC(=O)[C@H](CCC(=O)O)NC(=O)[C@H](CC(C)C)NC(=O)[C@H](CC(C)C)NC(=O)[C@H](CCCCN)NC(=O)[C@H](CO)NC(=O)[C@H](CC(C)C)NC(=O)[C@H](CC(=O)O)NC(=O)[C@H](CO)NC(=O)[C@@H](NC(=O)[C@H](Cc1ccccc1)NC(=O)[C@@H](NC(=O)CNC(=O)[C@H](CCC(=O)O)NC(=O)C(C)(C)NC(=O)[C@@H](N)Cc1ccc(O)cc1)[C@@H](C)O)[C@@H](C)O)C(C)C)C(=O)N[C@@H](CCC(=O)O)C(=O)N[C@@H](Cc1c[nH]c2ccccc12)C(=O)N[C@@H](CC(C)C)C(=O)N[C@@H](CCCCN)C(=O)N[C@@H](C)C(=O)NCC(=O)NCC(=O)N1CCC[C@H]1C(=O)N[C@@H](CO)C(=O)N[C@@H](CO)C(=O)NCC(=O)N[C@@H](C)C(=O)N1CCC[C@H]1C(=O)N1CCC[C@H]1C(=O)N1CCC[C@H]1C(=O)N[C@@H](CO)C(N)=O
B2: Tyr(1)Ile(12)-GLP1 (peptide)
peptide: YAEGTFTSDVSIYLEGQAAKEFIAWLVKGR
modifications: ends and bridges not checked
B3: SEQ ID NO: 8 (peptide)
peptide: Y[Aib]EGTFTSDLSKLLEKEAVRLFIEWLKAGGPSSGAPPPS-NH2
modifications: N-terminus assumed
SMILES: CC[C@H](C)[C@H](NC(=O)[C@H](Cc1ccccc1)NC(=O)[C@H](CC(C)C)NC(=O)[C@H](CCCNC(=N)N)NC(=O)[C@@H](NC(=O)[C@H](C)NC(=O)[C@H](CCC(=O)O)NC(=O)[C@H](CCCCN)NC(=O)[C@H](CCC(=O)O)NC(=O)[C@H](CC(C)C)NC(=O)[C@H](CC(C)C)NC(=O)[C@H](CCCCN)NC(=O)[C@H](CO)NC(=O)[C@H](CC(C)C)NC(=O)[C@H](CC(=O)O)NC(=O)[C@H](CO)NC(=O)[C@@H](NC(=O)[C@H](Cc1ccccc1)NC(=O)[C@@H](NC(=O)CNC(=O)[C@H](CCC(=O)O)NC(=O)C(C)(C)NC(=O)[C@@H](N)Cc1ccc(O)cc1)[C@@H](C)O)[C@@H](C)O)C(C)C)C(=O)N[C@@H](CCC(=O)O)C(=O)N[C@@H](Cc1c[nH]c2ccccc12)C(=O)N[C@@H](CC(C)C)C(=O)N[C@@H](CCCCN)C(=O)N[C@@H](C)C(=O)NCC(=O)NCC(=O)N1CCC[C@H]1C(=O)N[C@@H](CO)C(=O)N[C@@H](CO)C(=O)NCC(=O)N[C@@H](C)C(=O)N1CCC[C@H]1C(=O)N1CCC[C@H]1C(=O)N1CCC[C@H]1C(=O)N[C@@H](CO)C(N)=O
B4: SEQ ID NO: 9 (peptide)
peptide: Y[Aib]EGTFTSDLSKLLDKEAVRLFIEWLKAGGPSSGAPPPS-NH2
modifications: N-terminus assumed
SMILES: CC[C@H](C)[C@H](NC(=O)[C@H](Cc1ccccc1)NC(=O)[C@H](CC(C)C)NC(=O)[C@H](CCCNC(=N)N)NC(=O)[C@@H](NC(=O)[C@H](C)NC(=O)[C@H](CCC(=O)O)NC(=O)[C@H](CCCCN)NC(=O)[C@H](CC(=O)O)NC(=O)[C@H](CC(C)C)NC(=O)[C@H](CC(C)C)NC(=O)[C@H](CCCCN)NC(=O)[C@H](CO)NC(=O)[C@H](CC(C)C)NC(=O)[C@H](CC(=O)O)NC(=O)[C@H](CO)NC(=O)[C@@H](NC(=O)[C@H](Cc1ccccc1)NC(=O)[C@@H](NC(=O)CNC(=O)[C@H](CCC(=O)O)NC(=O)C(C)(C)NC(=O)[C@@H](N)Cc1ccc(O)cc1)[C@@H](C)O)[C@@H](C)O)C(C)C)C(=O)N[C@@H](CCC(=O)O)C(=O)N[C@@H](Cc1c[nH]c2ccccc12)C(=O)N[C@@H](CC(C)C)C(=O)N[C@@H](CCCCN)C(=O)N[C@@H](C)C(=O)NCC(=O)NCC(=O)N1CCC[C@H]1C(=O)N[C@@H](CO)C(=O)N[C@@H](CO)C(=O)NCC(=O)N[C@@H](C)C(=O)N1CCC[C@H]1C(=O)N1CCC[C@H]1C(=O)N1CCC[C@H]1C(=O)N[C@@H](CO)C(N)=O
B5: SEQ ID NO: 11 (peptide)
peptide: Y[Aib]EGTFTSDLSILLEEEAVRLFIEWLKAGGPSSGAPPPS-NH2
modifications: N-terminus assumed
SMILES: CC[C@H](C)[C@H](NC(=O)[C@H](CO)NC(=O)[C@H](CC(C)C)NC(=O)[C@H](CC(=O)O)NC(=O)[C@H](CO)NC(=O)[C@@H](NC(=O)[C@H](Cc1ccccc1)NC(=O)[C@@H](NC(=O)CNC(=O)[C@H](CCC(=O)O)NC(=O)C(C)(C)NC(=O)[C@@H](N)Cc1ccc(O)cc1)[C@@H](C)O)[C@@H](C)O)C(=O)N[C@@H](CC(C)C)C(=O)N[C@@H](CC(C)C)C(=O)N[C@@H](CCC(=O)O)C(=O)N[C@@H](CCC(=O)O)C(=O)N[C@@H](CCC(=O)O)C(=O)N[C@@H](C)C(=O)N[C@H](C(=O)N[C@@H](CCCNC(=N)N)C(=O)N[C@@H](CC(C)C)C(=O)N[C@@H](Cc1ccccc1)C(=O)N[C@H](C(=O)N[C@@H](CCC(=O)O)C(=O)N[C@@H](Cc1c[nH]c2ccccc12)C(=O)N[C@@H](CC(C)C)C(=O)N[C@@H](CCCCN)C(=O)N[C@@H](C)C(=O)NCC(=O)NCC(=O)N1CCC[C@H]1C(=O)N[C@@H](CO)C(=O)N[C@@H](CO)C(=O)NCC(=O)N[C@@H](C)C(=O)N1CCC[C@H]1C(=O)N1CCC[C@H]1C(=O)N1CCC[C@H]1C(=O)N[C@@H](CO)C(N)=O)[C@@H](C)CC)C(C)C

Assays:
Assay in all cases: cell-based or functional assay
[1] = molecular target: human GLP-1 receptor (human) (UniProt P43220)
[2] = molecular target: human glucagon receptor (human) (UniProt P47871)
human GLP-1 receptor [3] = molecular target: T2, human GLP-1 receptor (human, UniProt P43220 24-463)
human glucagon receptor = human glucagon receptor (human, UniProt P47871 26-477)
human GIP receptor [4] = molecular target: T1, human GIP receptor
human GLP-1 receptor [5] = molecular target: T2, human GLP-1 receptor; remark: listed apart in the source
Target sequence in this assay (P43220 24-463): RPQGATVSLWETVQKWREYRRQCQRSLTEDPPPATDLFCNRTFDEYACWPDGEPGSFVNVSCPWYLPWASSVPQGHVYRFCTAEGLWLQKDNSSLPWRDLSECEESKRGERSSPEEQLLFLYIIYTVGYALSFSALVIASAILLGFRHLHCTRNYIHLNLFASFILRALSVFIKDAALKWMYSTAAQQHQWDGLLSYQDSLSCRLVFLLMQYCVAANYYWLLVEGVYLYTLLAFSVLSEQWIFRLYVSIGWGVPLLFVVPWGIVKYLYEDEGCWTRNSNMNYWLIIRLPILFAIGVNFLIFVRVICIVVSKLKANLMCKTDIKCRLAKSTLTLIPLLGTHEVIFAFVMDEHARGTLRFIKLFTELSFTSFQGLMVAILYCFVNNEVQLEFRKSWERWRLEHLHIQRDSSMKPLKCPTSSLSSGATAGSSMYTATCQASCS

human GIP receptor [6] = molecular target: T1, human GIP receptor; remark: listed apart in the source

human glucagon receptor, sequence (P47871 26-477): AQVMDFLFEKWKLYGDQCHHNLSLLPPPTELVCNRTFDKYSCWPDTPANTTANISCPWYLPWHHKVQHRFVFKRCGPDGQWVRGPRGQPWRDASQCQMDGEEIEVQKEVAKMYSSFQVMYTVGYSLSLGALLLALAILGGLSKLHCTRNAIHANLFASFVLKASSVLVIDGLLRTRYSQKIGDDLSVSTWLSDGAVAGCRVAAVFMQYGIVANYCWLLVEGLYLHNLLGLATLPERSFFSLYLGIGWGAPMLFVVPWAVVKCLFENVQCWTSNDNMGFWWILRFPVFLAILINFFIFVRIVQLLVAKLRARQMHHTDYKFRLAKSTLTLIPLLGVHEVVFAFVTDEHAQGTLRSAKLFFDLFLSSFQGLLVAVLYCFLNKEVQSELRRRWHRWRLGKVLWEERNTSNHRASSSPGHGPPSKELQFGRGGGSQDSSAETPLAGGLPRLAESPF
human glucagon receptor (human), sequence (P47871 26-477): as above
human GLP-1 receptor (human), sequence (P43220 24-463): as the sequence (P43220 24-463) above

Molecule	EC50 hGLP-1 R [pM] (cAMP formation, HTRF, HEK-293 cells) [1]	EC50 hGlucagon R [pM] (cAMP formation, HTRF, HEK-293 cells) [2]	EC50 hGLP-1 R [pM] (cAMP formation, HTRF, HEK-293 cells) (human GLP-1 receptor [3])	EC50 hGLUC R [pM] (cAMP formation, HTRF, HEK-293 cells) (human glucagon receptor)	EC50 hGIP R [pM] (cAMP formation, HTRF, HEK-293 cells) (human GIP receptor [4])	EC50 hGLP-1 R [pM] (cAMP formation, HTRF, HEK-293 cells) (human GLP-1 receptor [5])	EC50 hGIP R [pM] (cAMP formation, HTRF, HEK-293 cells) (human GIP receptor [6])
exendin-4 (peptide)	0.4	> 1e+07					
B1			1	137000	1.3		
B2						5	3660
B3			1.2	79000	2.3		
B4			2.2	149000	13		
B5			1.4	529000	0.9		
